The source of these data is US20200270347A1.

Holding throughout (test): SPR, TYRP1 ECD-Fc captured with anti-PGLALA antibody, 1:1 Langmuir
Assay [1] deals with Human TYRP1 ECD-Fc(knob)-Avi / Fc(hole) (human) [IgG part: P01857].
Assay [2] addresses Mouse TYRP1 ECD-Fc(knob)-Avi / Fc(hole) (mouse) [IgG part: P01857].
In assay [3] the target is Cynomolgus TYRP1 ECD-Fc(knob)-Avi / Fc(hole) (cynomolgus) [IgG part: P01857].

Consider parental TA99 antibody (Fab), for which the Kd (as a rule, a measure of binding affinity in units of concentration) stood at 0.09 nM in assay [1], 0.31 nM in assay [2] and 0.12 nM in assay [3].
